Data reported in PMC6915754, “Protein components of ribonucleoprotein granules from Drosophila germ cells oligomerize and show distinct spatial organization during germline development” (Scientific Reports, 2019).

B1: Tud domain 3 (amino acids 592-772 of Tudor) (domain or fragment, Drosophila, UniProt P25823 592-772, looked up)
chain: QLENDDAVEIRFIDSPSNFYVQKVANIGKFEQLMDEMFSYYNANQRVPDQLILGAPCIVKCDQEWYRAEILRVDDSVIVRHVDFGYEQNVKRHLIGHIAEKHLEMPRQAIKCCLKGFENSELSEDKITDQFEMLAEESNIRRRTFSVRIFRIEPDGLNVVNLLAKNLNVMKKLYKLSMPFE
notes: Tudor (Tud) protein, Drosophila, full length 2515 amino acids; Tud domain 3, amino acids 592-772; pET SUMO vector; source: E. coli BL21 (DE3), partially purified (Ni-NTA); not shown: His, N-terminal, kept
B2: Tud domain 6 (amino acids 1299-1484 of Tudor) (domain or fragment, Drosophila, UniProt P25823 1299-1484, looked up)
chain: SFICPYPVVLSSFQALVVYTAKPYRVYVQPQAIVPSMQTLLDNMYEHYKAKGDSLKKFDVGQICAVRSSDGNWYRARISGKDSNAACFEVFYIDYGNTEEIKRDDIKALDAKFYEHASGFAVEINLPIGRPSNDTKLKARISEILEEKVVTIKSIEVRRSHLIADVILENNQSVIDLLKAEKLVPG
notes: Tudor (Tud) protein, Drosophila, full length 2515 amino acids; Tud domain 6, amino acids 1299-1484; pET SUMO vector; source: E. coli BL21 (DE3), partially purified (Ni-NTA); not shown: His, N-terminal, kept
B3: Tud domain 1 (amino acids 1-217 of Tudor) (domain or fragment, Drosophila, UniProt P25823 1-217, looked up)
chain: MNGQARIALPSKVDLYITHVDHVGPYLKVYGHVNRDAASLISERIRNLLPTCFAIEPSWSVERQQALLIPGTFCIFKNINGPAPGDVEYRRIRVVSADLEGQSMRAEIDFVDFGYKRTVDSHDLMFPKQPKLLQNIPLHCFQYIVLGICSEWDQTDLAEVRRLVVNQIVKITVEPTQICDQKFASLRWKDFELNEFLVQQKQIGVSVDKQLMMDHCK
notes: Tudor (Tud) protein, Drosophila, full length 2515 amino acids; Tud domain 1, amino acids 1-217; pET SUMO vector; source: E. coli BL21 (DE3), partially purified (Ni-NTA); not shown: His, N-terminal, kept
B4: Tud domain 11 (amino acids 2335-2515 of Tudor) (domain or fragment, Drosophila, UniProt P25823 2335-2515, looked up)
chain: STVTGVQKPLEAELHNCVVVQFDGPMSFYVQMESDVPALEQMTDKLLDAEQDLPAFSDLKEGALCVAQFPEDEVFYRAQIRKVLDDGKCEVHFIDFGNNAVTQQFRQLPEELAKPARYSRHCELDASTISKCDAALLQSFIDTRFSETFQVEILATKGTGTHVVRLFYQSKNISEKLQECQ
notes: Tudor (Tud) protein, Drosophila, full length 2515 amino acids; Tud domain 11, amino acids 2335-2515; pET SUMO vector; source: E. coli BL21 (DE3), partially purified (Ni-NTA); not shown: His, N-terminal, kept
B5: methylated Aubergine (sDMA-Aub) (natural protein, Drosophila, UniProt O76922 1-866, looked up)
chain: MNLPPNPVIARGRGRGRKPNNVEANRGFAPSLGQKSDPSHSEGNQASGGNGGGGDAQVGPSIEKSSLSAVQMHKSEGDPRGSVRGRRLITDLVYSRPPGMTSKKGVVGTHITVQANYFKVLKRPNWTIYQYRVDFTPDVEATRLRRSFLYEHKGILGGYIFDGTNMFCINQFKAVQDSPYVLELVTKSRAGENIEIKIKAVGSVQSTDAEQFQVLNLILRRAMEGLDLKLVSRYYYDPQAKINLENFRMQLWPGYQTSIRQHENDILLCSEICHKVMRTETLYNILSDAIRDSDDYQSTFKRAVMGMVILTDYNNKTYRIDDVDFQSTPLCKFKTNDGEISYVDYYKKRYNIIIRDLKQPLVMSRPTDKNIRGGNDQAIMIIPELARATGMTDAMRADFRTLRAMSEHTRLNPDRRIERLRMFNKRLKSCKQSVETLKSWNIELDSALVEIPARVLPPEKILFGNQKIFVCDARADWTNEFRTCSMFKNVHINRWYVITPSRNLRETQEFVQMCIRTASSMKMNICNPIYEEIPDDRNGTYSQAIDNAAANDPQIVMVVMRSPNEEKYSCIKKRTCVDRPVPSQVVTLKVIAPRQQKPTGLMSIATKVVIQMNAKLMGAPWQVVIPLHGLMTVGFDVCHSPKNKNKSYGAFVATMDQKESFRYFSTVNEHIKGQELSEQMSVNMACALRSYQEQHRSLPERILFFRDGVGDGQLYQVVNSEVNTLKDRLDEIYKSAGKQEGCRMTFIIVSKRINSRYFTGHRNPVPGTVVDDVITLPERYDFFLVSQAVRIGTVSPTSYNVISDNMGLNADKLQMLSYKMTHMYYNYSGTIRVPAVCHYAHKLAFLVAESINRAPSAGLQNQLYFL
modifications: symmetrically dimethylated arginines (sDMAs), positions not given
notes: Aubergine (Aub), Piwi family protein, Drosophila; full-length; monomer ~100 kDa; Oligomers migrate at 500-700 kDa; also called sDMA-containing Aub; source: Sf9 or TriEx Sf9 cells, baculovirus, co-expressed with Dart5(Csul) and Vls; for SEC also Ni-NTA); not shown: 3xFLAG, N-terminal, kept
B6: unmethylated Aubergine (natural protein, Drosophila, UniProt O76922 1-866, looked up)
chain: B5 chain
notes: Aubergine (Aub), Piwi family protein, Drosophila; full-length; without sDMAs; source: Sf9 cells lacking dart5/vls bacmid, baculovirus; not shown: 3xFLAG, N-terminal, kept
B7: Tud domain 4 (amino acids 1002-1192 of Tudor) (domain or fragment, Drosophila, UniProt P25823 1002-1192, looked up)
chain: SLDKPYALQEMKTPSKEAASLSWWLSPFQFYIVPKSVSAKYDNIMRDMREFYRQKQHQPLQLKVGSTVVVRQRKDNAILRATVTACNHMMRKYRVFCVDTGSLITVTSEDIWQLEQRFADPPCMAHRCSFHSVVTNYDPLYIVDRMETFVPVNAKVDCEFVSKEKSNQGSNTSSTCSYTVNIFVNGASLRD
notes: Tudor (Tud) protein, Drosophila, full length 2515 amino acids; Tud domain 4, amino acids 1002-1192; pET SUMO vector; source: E. coli BL21 (DE3), partially purified (Ni-NTA); not shown: His, N-terminal, kept
B8: Tud domain 9 (amino acids 1976-2160 of Tudor) (domain or fragment, Drosophila, UniProt P25823 1976-2160, looked up)
chain: SLAVTTKAIITHVENTSRIYLQFSEKDSLMDIICEKLNGSKLQPKTEKAAVDDMCVVQFADDLEFYRSRILEVLEDDQYKVILIDYGNTTVVDKLYELPQEFTLIKPVAEICSMEPSAIFEKNKALTLTTFDALLDSCKGVVAVEFVNKSASPPVVRLTTKDKRSLKIYEHLQKLVQAELKLIQK
notes: Tudor (Tud) protein, Drosophila, full length 2515 amino acids; Tud domain 9, amino acids 1976-2160; pET SUMO vector; source: E. coli BL21 (DE3), partially purified (Ni-NTA); not shown: His, N-terminal, kept

Columns and labels:
[1] = biological target: T1, GFP-Aub (functional and methylated, from fly ovaries) (Drosophila, UniProt O76922 1-866, methylated (sDMAs), positions not given); experiment: pull-down; GFP-Aub from fly ovaries held on anti-GFP agarose beads; partially purified His-SUMO Tud domains added; 50 µl reactions, 4 °C, 30 min, binding buffer PBS + 0.05% IGEPAL CA-630; 4 washes; bound domains detected by anti-His-tag western blot; conditions: both partners purified
T1 construct: Aubergine (Aub), Piwi family protein, Drosophila; full-length; also called full-length Aub; source: purified from fly ovaries with anti-GFP beads
T1 sequence (looked up): B5 chain

[2] = biological target: the molecule itself; experiment: native gel or EMSA; blue native PAGE (BN-PAGE), NativePAGE 3-12% Bis-Tris gels, of Aub purified by anti-c-Myc immunoaffinity, several concentrations; western blot with anti-Flag antibody

Binder	binding result [1]	binding result [2]
B1	binds	–
B2	binds	–
B3	binds	–
B4	binds	–
B5	–	binds
B6	–	binds
B7	binds	–
B8	binds	–
